T1: integrin β3(P685-F727) TM peptide C687S W715F (human, UniProt P05106 711-753, C687S | W715F)
T1 chain (looked up): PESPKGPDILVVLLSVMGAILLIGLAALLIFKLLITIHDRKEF

T2: integrin β3(P685-F727) TM peptide C687S W715H (human, UniProt P05106 711-753, C687S | W715H)
T2 chain (looked up): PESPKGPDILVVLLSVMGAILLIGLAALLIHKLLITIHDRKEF

T3: human integrin β3(P685-F727) TM peptide incorporating β3(C687S) (human, UniProt P05106 711-753, C687S)
T3 chain (looked up): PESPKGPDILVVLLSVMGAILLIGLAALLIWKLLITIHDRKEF

T4: integrin β3(P685-F727) TM peptide C687S W715Y (human, UniProt P05106 711-753, C687S | W715Y)
T4 chain (looked up): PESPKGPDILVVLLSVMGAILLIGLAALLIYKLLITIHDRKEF

T5: integrin β3(P685-F727) TM peptide C687S W715I (human, UniProt P05106 711-753, C687S | W715I)
T5 chain (looked up): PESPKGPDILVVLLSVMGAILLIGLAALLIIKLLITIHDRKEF

T6: integrin β3(P685-F727) TM peptide C687S W715A (human, UniProt P05106 711-753, C687S | W715A)
T6 chain (looked up): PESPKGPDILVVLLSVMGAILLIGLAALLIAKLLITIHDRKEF


Key:
[1] = biological target: T1, integrin β3(P685-F727) TM peptide C687S …; assay: ITC
[2] = biological target: T2, integrin β3(P685-F727) TM peptide C687S …; assay: ITC
[3] = biological target: T3, human integrin β3(P685-F727) TM peptide …; assay: ITC
[4] = biological target: T4, integrin β3(P685-F727) TM peptide C687S …; assay: ITC
[5] = biological target: T5, integrin β3(P685-F727) TM peptide C687S …; assay: ITC
[6] = biological target: T6, integrin β3(P685-F727) TM peptide C687S …; assay: ITC
[7] = biological target: T5, integrin β3(P685-F727) TM peptide C687S …; assay: intrinsic tryptophan fluorescence emission
[8] = biological target: T3, human integrin β3(P685-F727) TM peptide …; assay: intrinsic tryptophan fluorescence emission

Row | Binder | KXY (association equilibrium constant on the mole fraction scale) [3] | dH [3] | also measured
1 | human integrin αIIb(A958-P998) TM peptide (peptide) not shown | 3250 ± 60 | -16 ± 0.1 kcal/mol | KXY (association equilibrium constant on the mole fraction scale) [1]: 2230 ± 50; dH [1]: -17.2 ± 0.2 kcal/mol; KXY (association equilibrium constant on the mole fraction scale) [2]: 820 ± 40; dH [2]: -8.7 ± 0.2 kcal/mol; KXY (association equilibrium constant on the mole fraction scale) [4]: 1320 ± 40; dH [4]: -14.2 ± 0.2 kcal/mol; KXY (association equilibrium constant on the mole fraction scale) [5]: 2600 ± 70; dH [5]: -9.6 ± 0.1 kcal/mol; KXY (association equilibrium constant on the mole fraction scale) [6]: 1300 ± 40; dH [6]: -15.5 ± 0.3 kcal/mol
2 | ALEERAIPIVWVLVGVLGGLLLLTILVLAMHKVGFFKRNRP (peptide, UniProt P08514 989-1029, looked up) [integrin αIIb(A958-P998) TM peptide W988H/W967V] | – | – | binding result [7]: binds
3 | ALEERAIPIAVVLVGVLGGLLLLTILVLAMWKVGFFKRNRP (peptide, UniProt P08514 989-1029, looked up) [integrin αIIb(A958-P998) TM peptide W967A/W968V] | 6400 ± 200 | -18.4 ± 0.2 kcal/mol | –
4 | ALEERAIPIYVVLVGVLGGLLLLTILVLAMWKVGFFKRNRP (peptide, UniProt P08514 989-1029, looked up) [integrin αIIb(A958-P998) TM peptide W967Y/W968V] | 9800 ± 400 | -14 ± 0.2 kcal/mol | –
5 | integrin αIIb(A958-P998) TM peptide W967H (peptide) not shown | 2530 ± 50 | -15.4 ± 0.1 kcal/mol | –
6 | integrin αIIb(A958-P998) TM peptide W967Y (peptide) not shown | 4700 ± 100 | -13.7 ± 0.2 kcal/mol | –
7 | integrin αIIb(A958-P998) TM peptide W967V (peptide) not shown | 4450 ± 80 | -13.1 ± 0.1 kcal/mol | –
8 | ALEERAIPIVVVLVGVLGGLLLLTILVLAMHKVGFFKRNRP (peptide, UniProt P08514 989-1029, looked up) [integrin αIIb(A958-P998) TM peptide W967V/W968V/W988H] | – | – | binding result [8]: binds
9 | ALEERAIPIFVVLVGVLGGLLLLTILVLAMWKVGFFKRNRP (peptide, UniProt P08514 989-1029, looked up) [integrin αIIb(A958-P998) TM peptide W967F/W968V] | 6500 ± 200 | -15.7 ± 0.2 kcal/mol | –
10 | ALEERAIPIHVVLVGVLGGLLLLTILVLAMWKVGFFKRNRP (peptide, UniProt P08514 989-1029, looked up) [integrin αIIb(A958-P998) TM peptide W967H/W968V] | 7000 ± 200 | -14.9 ± 0.2 kcal/mol | –
11 | ALEERAIPIVVVLVGVLGGLLLLTILVLAMWKVGFFKRNRP (peptide, UniProt P08514 989-1029, looked up) [integrin αIIb(A958-P998) TM peptide W967V/W968V] | 2680 ± 60 | -17.8 ± 0.2 kcal/mol | –
12 | integrin αIIb(A958-P998) TM peptide W967F (peptide) not shown | 4030 ± 90 | -12.6 ± 0.1 kcal/mol | –

Now from value to binder, other results behind:

Row | KXY (association equilibrium constant on the mole fraction scale) [3] | dH [3] | Binder | also measured
13 | 2320 ± 50 | -19.2 ± 0.2 kcal/mol | ALEERAIPIWWVLVGVLGGLLLLTILVLAMYKVGFFKRNRP (peptide, UniProt P08514 989-1029, looked up) [integrin αIIb(A958-P998) TM peptide W988Y] | –
14 | 3540 ± 40 | -16.4 ± 0.1 kcal/mol | ALEERAIPIWWVLVGVLGGLLLLTILVLAMHKVGFFKRNRP (peptide, UniProt P08514 989-1029, looked up) [integrin αIIb(A958-P998) TM peptide W988H] | –
15 | 3320 ± 70 | -17.3 ± 0.1 kcal/mol | ALEERAIPIWWVLVGVLGGLLLLTILVLAMAKVGFFKRNRP (peptide, UniProt P08514 989-1029, looked up) [integrin αIIb(A958-P998) TM peptide W988A] | –
16 | 2900 ± 100 | -13.7 ± 0.2 kcal/mol | ALEERAIPIWWVLVGVLGGLLLLTILVLAMVKVGFFKRNRP (peptide, UniProt P08514 989-1029, looked up) [integrin αIIb(A958-P998) TM peptide W988V] | –
17 | 13200 ± 600 | -14.3 ± 0.2 kcal/mol | ALEERAIPIWVVLVGVLGGLLLLTILVLAMWKVGFFKRNRP (peptide, UniProt P08514 989-1029, looked up) [integrin αIIb(A958-P998) TM peptide W968V] | –
18 | 1000 ± 20 | -16.4 ± 0.2 kcal/mol | ALEERAIPIWWVLVGVLGGLLLLTILVLAMFKVGFFKRNRP (peptide, UniProt P08514 989-1029, looked up) [integrin αIIb(A958-P998) TM peptide W988F] | –
